{"source": "patent US9605080B2", "about": "“Antibodies against CD73” (BRISTOL-MYERS SQUIBB COMPANY, priority 2014, dated 2017)", "molecules": {"B1": {"name": "IgG2.3: antibody with IgG2 constant region with C219S (protein)", "constant": "ASTKGPSVFPLAPCSRSTSESTAALGCLVKDYFPEPVTVSWNSGALTSGVHTFPAVLQSSGLYSLSSVVTVPSSNFGTQTYTCNVDHKPSNTKVDKTVERKSCVECPPCPAPPVAGPSVFLFPPKPKDTLMISRTPEVTCVVVDVSHEDPEVQFNWYVDGVEVHNAKTKPREEQFNSTFRVVSVLTVVHQDWLNGKEYKCKVSNKGLPAPIEKTISKTKGQPREPQVYTLPPSREEMTKNQVSLTCLVKGFYPSDIAVEWESNGQPENNYKTTPPMLDSDGSFFLYSKLTVDKSRWQQGNVFSCSVMHEALHNHYTQKSLSLSPGK", "modifications": "left off: another chain or arm of the molecule", "notes": "antibody with IgG2 constant region with C219S"}, "B2": {"name": "IgG2.3G1-AY-V27: IgG2.3G1-AY with S267E (protein)", "chain": "ASTKGPSVFPLAPCSRSTSESTAALGCLVKDYFPEPVTVSWNSGALTSGVHTFPAVLQSSGLYSLSSVVTVPSSNFGTQTYTCNVDHKPSNTKVDKTVERKSCVECPPCPAPELLGGPSVFLFPPKPKDTLMISRTPEVTCVVVDVEHEDPEVKFNWYVDGVEVHNAKTKPREEQYNSTYRVVSVLTVLHQDWLNGKEYKCKVSNKALPAPIEKTISKAKGQPREPQVYTLPPSREEMTKNQVSLTCLVKGFYPSDIAVEWESNGQPENNYKTTPPVLDSDGSFFLYSKLTVDKSRWQQGNVFSCSVMHEALHNHYTQKSLSLSPGK", "modifications": "Synthetic: IgG2.3G1-AY-V27", "notes": "IgG2.3G1-AY with S267E"}, "B3": {"name": "IgG2.5G1-AY-V27: IgG2-B-form variant (C131S) hybrid with IgG1f, V27 (protein)", "constant": "ASTKGPSVFPLAPSSRSTSESTAALGCLVKDYFPEPVTVSWNSGALTSGVHTFPAVLQSSGLYSLSSVVTVPSSNFGTQTYTCNVDHKPSNTKVDKTVERKCCVECPPCPAPELLGGPSVFLFPPKPKDTLMISRTPEVTCVVVDVEHEDPEVKFNWYVDGVEVHNAKTKPREEQYNSTYRVVSVLTVLHQDWLNGKEYKCKVSNKALPAPIEKTISKAKGQPREPQVYTLPPSREEMTKNQVSLTCLVKGFYPSDIAVEWESNGQPENNYKTTPPVLDSDGSFFLYSKLTVDKSRWQQGNVFSCSVMHEALHNHYTQKSLSLSPGK", "modifications": "left off: another chain or arm of the molecule"}, "B4": {"name": "7A11: human anti-CD73 mAb, IgG1za, VK1; VH SEQ ID NO: 88, VL SEQ ID NO: 92 (antibody, V domains shown)", "VH": "EVQLVESGGGLVQTGRSLRLSCAASGFTFDDYAMHWVRQAPGKGLEWVSDISWNSDIIGYADSVKGRFTISRDNAKNSLYLQMNSLRAEDTALYYCAKDIYGSGSSFFDYWGQGILVTVSS", "VL": "DIQMTQSPSSLSASVGDRVTITCRASQYISSWLAWYQQKPEKAPKSLIYAASSLQSGVPSRFSGSGSGTDFTLTISSLQPEDFATYYCQQYHSYPPTFGQGTRLEIK", "modifications": "Synthetic: 7A11 VH; Synthetic: 7A11 VK1"}}, "key": {"[1]": {"target": "T1, endogenous CD73 activity in Calu-6 cells (Homo sapiens, UniProt P21589)", "T1 construct": "Calu6 (CD73 endogenous expressors; human pulmonary adenocarcinoma cell line); endogenous in cells; host or cells: Calu6 (human pulmonary adenocarcinoma)", "T1 sequence (P21589 27-549)": "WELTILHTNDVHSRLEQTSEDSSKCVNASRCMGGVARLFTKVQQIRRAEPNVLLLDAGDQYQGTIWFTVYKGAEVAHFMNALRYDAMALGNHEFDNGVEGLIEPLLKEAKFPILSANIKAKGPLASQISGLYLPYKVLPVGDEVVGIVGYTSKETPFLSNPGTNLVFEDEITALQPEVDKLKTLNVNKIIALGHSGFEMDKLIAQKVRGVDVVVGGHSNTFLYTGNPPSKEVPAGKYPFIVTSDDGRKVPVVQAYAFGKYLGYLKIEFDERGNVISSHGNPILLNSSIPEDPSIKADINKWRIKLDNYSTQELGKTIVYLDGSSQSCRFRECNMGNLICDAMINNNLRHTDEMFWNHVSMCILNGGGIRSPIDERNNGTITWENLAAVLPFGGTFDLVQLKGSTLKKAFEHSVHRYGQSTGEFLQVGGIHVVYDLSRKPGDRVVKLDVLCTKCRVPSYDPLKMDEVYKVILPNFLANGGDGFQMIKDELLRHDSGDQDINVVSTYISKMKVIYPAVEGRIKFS", "experiment": "Dual cell line HTRF cAMP assay (Calu-6 and HEK293/A2AR cells)", "type": "cell-based", "conditions": "percentage of inhibition compared to 100 nM 11F11 set to 100%", "protocol": "CD73 antibodies were serial diluted with PBS buffer containing 0.2% BSA, and plated 5 μl/well in 384 well white bottom proxiplate (PerkinElmer, Waltham, Mass.). Calu-6 cells were harvested and resuspend in PBS containing 0.2% BSA, then 5 μl of cells (300 cells/well) were added to the plate. The cells were incubated with antibodies for 10 minutes at 37° C. […] The cells were further incubated with AMP for 30 minutes at 37° C. During this time, HEK293/A2AR cells were harvested and diluted to 0.4 million/ml in PBS containing 0.2% BSA. They were added into the assay plate at 5 μl/well and continued to incubate at 37° C. for 1 hr. HRTF assays were performed using the homogenous time-resolved fluorescence (HTRF) HiRange cAMP detection kit (Cisbio, Bedford, Mass.) by adding 10 μl/well cAMP-conjugated d2 and 10μl/well europium cryptate conjugated anti-cAMP antibody in lysis buffer according to the manufacturer's instructions. Plates were incubated at room temperature for 60 minutes and Fluorescence Resonance Energy Transfer (FRET) signals (665 and 615 nM) were read using an EnVision plate reader (PerkinElmer, Waltham, Mass.). The FRET signal was calculated as the ratio of signal from the 665 nm (acceptor) and 615 nm (donor) channels and multiplied by 10,000. IC50 and Ymax were measured. […] All calculations were determined as a percentage of inhibition compared to this control, which was set to 100%."}, "[2]": {"tested_on": "hCD32a-H131, hCD32a-R131, hCD32b, hCD16a-V158, hCD64", "experiment": "BLI (Fortebio Octet) binding of FcgR analytes to antibodies captured from supernatants", "design": "species or system human", "description": "(§1) The binding of antibodies to Fc gamma receptors (FcγRs or FcgRs) was studied using biosensor technologies including Biacore surface plasmon resonance (SPR) and Fortebio Biolayer Interferometry (BLI). SPR studies were performed on a Biacore T100 instrument (GE Healthcare) at 25° C. The Fab fragment from a murine anti-6×His antibody was immobilized on a CM5 sensor chip using EDC/NHS to a density of ˜3000 RU. Various his-tagged FcgRs (7 ug/ml) were captured via the C-terminal his-tag using a contact time of 30 s at 10 ul/min, and the binding of 1.0 μM antibody was evaluated in a running buffer of 10 mM NaPO4, 130 mM NaCl, 0.05% p20 (PBS-T) pH 7.1. FcgRs used for these experiments included CD64 (FcgRI), CD32a-H131 (FcgRIIa-H131), CD32a-R131 (FcgRIIa-R131), CD32b (FcgRIIb), CD16a-V158 (FcgRIIIa-V158), CD16b-NA1 (FcgRIIIb-NA1), and CD16B-NA2 (FcgRIIIb-NA2). BLI experiments were performed on a Fortebio Octet RED instrument (Pall, Fortebio) at 25° C. in 10 mM NaPO4, 130 mM NaCl, 0.05% p20 (PBS-T) pH 7.1. Antibodies were captured out of undiluted expression supernatants on protein A coated sensors, followed by the binding of 1 μM hCD32a-H131, hCD32a-R131, hCD32b, hCD16a-V158, or 0.1 μM hCD64 analytes.\nThe next set of constructs was used to engineer effector function into the otherwise effector function negative IgG2 isotype. […]"}, "human FcγRs": {"tested_on": "human FcγRs", "experiment": "SPR binding to human FcγRs (anti-his Fab captured FcgR-his proteins)", "conditions": "1.0 μM antibody", "description": "Binding of the constructs to human FcγRs was measured via SPR. hCD64 and hCD32a-H131 binding data for IgG1.1 and IgG2 molecules were consistent with expected values for the different Fcs. IgG1.1f is the most inert Fc.\nas §1, with “Antibodies were captured out of undiluted expression supernatants on protein A coated sensors, followed by the binding of 1 μM hCD32a-H131, hCD32a-R131, hCD32b, hCD16a-V158, or 0.1 μM hCD64 analytes.” left out"}, "CD73 on NCI-H292 cells": {"target": "T2, CD73 on NCI-H292 cells (Homo sapiens, UniProt P21589)", "T2 construct": "maintenance of downregulation of endogenous CD73; endogenous in cells; host or cells: NCI-H292", "T2 sequence (P21589 27-549)": "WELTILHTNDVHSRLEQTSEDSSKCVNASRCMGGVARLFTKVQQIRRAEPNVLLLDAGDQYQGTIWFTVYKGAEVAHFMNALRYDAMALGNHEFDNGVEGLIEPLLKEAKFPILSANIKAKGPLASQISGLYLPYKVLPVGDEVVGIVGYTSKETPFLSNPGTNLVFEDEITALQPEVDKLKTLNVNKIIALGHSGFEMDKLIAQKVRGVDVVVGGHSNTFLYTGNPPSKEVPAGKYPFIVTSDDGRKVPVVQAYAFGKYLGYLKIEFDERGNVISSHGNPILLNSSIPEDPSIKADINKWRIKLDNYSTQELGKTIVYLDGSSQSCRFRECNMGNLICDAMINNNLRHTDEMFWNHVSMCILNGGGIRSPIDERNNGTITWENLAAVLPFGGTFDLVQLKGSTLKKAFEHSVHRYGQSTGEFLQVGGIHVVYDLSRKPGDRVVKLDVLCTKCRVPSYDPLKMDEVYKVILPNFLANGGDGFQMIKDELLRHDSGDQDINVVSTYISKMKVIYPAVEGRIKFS", "experiment": "Flow cytometry based cross-blocking on NCI-H292 cells", "type": "binding", "conditions": "FITC-labeled 11F11, 10 ug/mL", "description": "The antibodies were also subjected to flow cytometry based cross-blocking. The experiment was conducted as follows using one set of labeled fluorescently labeled antibody and a second set of unlabeled antibody: 100000 NCI-H292 cells were seeded per well. The plate was spun down and the cells were resuspended in 100 uL 2% FBS in PBS per well. The cells were blocked on ice for 20 min. Unlabeled antibody, as indicated, in 2% FBS in PBS was added to each well. […] 6 wells of cells were incubated without antibody, and were resuspended in 100 uL 2% FBS in PBS only (for controls). The cells were then incubated on ice for 30 min. The cells were washed twice with 2% FBS in PBS and the samples were resuspended in 140 uL 2% FBS in PBS, and analyzed on a FacsCalibur flow cytometer (Becton Dickinson)."}, "[3]": {"experiment": "Differential scanning calorimetry, thermal stability of CD73 mAbs", "type": "physicochemical", "conditions": "PBS pH 7.1", "description": "The thermal stability of CD73 mAbs were determined using a MicroCal Capillary DSC instrument (GE Healthcare). Antibodies were analyzed at a concentrations of 0.5-0.75 mg/ml in PBS pH 7.1. To stabilize the DSC instrument baseline and obtain a consistent thermal history, multiple scans of buffer alone in both the sample and reference cell were recorded prior to sample analysis. Sample scans contained mAb in the sample cell and PBS pH 7.1 in the reference cell. All scans were run from 10-110° C. at a scan rate of 60°/hr using a 5 minute pre-cycle thermostat period and no post-cycle thermostat period. Data (as shown in Table 15 below) were analyzed using MicroCal Origin Cap DSC analysis software. The appropriate buffer-buffer blank scans were subtracted from the sample-buffer data, and the transition midpoint temperature (Tm) values were determined by fitting the data to a non-2-state model. Tm1, Tm2 and Tm3 are the Tms for different domains in the antibodies."}}, "data": [{"molecule": "Nc1ncnc2c1ncn2[C@@H]1O[C@H](COP(=O)(O)CP(=O)(O)O)[C@@H](O)[C@H]1O", "note": "[APCP]", "values": [{"measurement": "Ymax", "setting": "[1]", "value": 97, "unit": "%"}]}, {"molecule": "B1", "values": [{"measurement": "FcgR binding properties (BLI, supernatants)", "setting": "[2]", "value": "appreciable binding to only CD32a-H131"}]}, {"molecule": "B2", "values": [{"measurement": "FcgR binding properties (SPR)", "setting": "human FcγRs", "value": "comparable FcgR binding properties to IgG1f and IgG1f-S267E"}]}, {"molecule": "B3", "values": [{"measurement": "FcgR binding properties (SPR)", "setting": "human FcγRs", "value": "IgG1f or modified IgG1f like effector functions"}]}, {"molecule": "B4", "values": [{"measurement": "competition with 11F11", "setting": "CD73 on NCI-H292 cells", "value": "competes with 11F11"}, {"measurement": "DSC Tm1 (oC)", "setting": "[3]", "value": 64.8, "unit": "oC"}, {"measurement": "DSC Tm2 (oC)", "setting": "[3]", "value": 70.2, "unit": "oC"}, {"measurement": "DSC Tm3 (oC)", "setting": "[3]", "value": 82.8, "unit": "oC"}, {"measurement": "DSC Tonset (oC)", "setting": "[3]", "value": 56.0, "unit": "oC"}]}]}
